US20240115500A1, “POLYMERIC MICELLE COMPLEXES OF MRNA OR ZWITTERIONIC AGENTS, AND FORMULATIONS AND USES THEREOF” (Aravasc Inc., priority 2020, published 2024)

Experiment: Agarose gel electrophoresis of protein + PBC formulations at defined w/w ratios (Example 2)
[1] = polymer:protein ratio 15:1, FIG. 2A-2D

Description: Unless otherwise indicated, the complexation was conducted at room temperature by incubating the PBC with the protein for 10-20 minutes on a microcentrifuge. A formulation of PBC alone was prepared along with the protein and PBC complexes.
Formulation were prepared as described above and analyzed by agarose gel electrophoresis. A 2% agarose gel was prepared and 20 μl of each formulation was loaded at the center of the gel. The gel was run for 30 minutes at 75V.

## Semaglutide
[1]
  complexation with the polymer (agarose gel): significantly complex
polymer:protein ratio 30:1, FIG. 2A/2B
  complexation with the polymer (agarose gel): significantly complex

## interferon alpha
polymer:protein ratio 18:1, FIG. 2D
  complexation with the polymer (agarose gel): significantly complex

B1: interferon gamma: interferon protein tested for complexation with PBC (protein, UniProt P01579 24-161, looked up)
Interferon gamma: QDPYVKEAENLKKYFNAGHSDVADNGTLFLGILKNWKEESDRKIMQSQIVSFYFKLFKNFKDDQSIQKSVETIKEDMNVKFFNSNKKKRDDFEKLTNYSVTDLNVQRKAIHELIQVMAELSPAAKTGKRKRSQMLFRG
[1]
  complexation with the polymer (agarose gel): significantly complex
